In publication PMC6956818, “Activation of JNK and p38 MAPK Mediated by ZDHHC17 Drives Glioblastoma Multiforme Development and Malignant Progression” (Theranostics, 2020):

B1: Myc-tagged ZDHHC17 ANK (1-7) [human] / Flag-MAP2K4 [human] (parent complex)
chain 1: THIDDYSTWDIVKATQYGIYERCRELVEAGYDVRQPDKENVTLLHWAAINNRIDLVKYYISKGAIVDQLGGDLNSTPLHWATRQGHLSMVVQLMKYGADPSLIDGEGCSCIHLAAQFGHTSIVAYLIAKGQDVDMMDQNGMTPLMWAAYRTHSVDPTRLLLTFNVSVNLGDKYHKNTALHWAVLAGNTTVISLLLEAGANVDAQNIKGESALDLAKQRKNVWMINHLQEARQAKGYDN
chain 2: MAAPSPSGGGGSGGGSGSGTPGPVGSPAPGHPAVSSMQGKRKALKLNFANPPFKSTARFTLNPNPTGVQNPHIERLRTHSIESSGKLKISPEQHWDFTAEDLKDLGEIGRGAYGSVNKMVHKPSGQIMAVKRIRSTVDEKEQKQLLMDLDVVMRSSDCPYIVQFYGALFREGDCWICMELMSTSFDKFYKYVYSVLDDVIPEEILGKITLATVKALNHLKENLKIIHRDIKPSNILLDRSGNIKLCDFGISGQLVDSIAKTRDAGCRPYMAPERIDPSASRQGYDVRSDVWSLGITLYELATGRFPYPKWNSVFDQLTQVVKGDPPQLSNSEEREFSPSFINFVNLCLTKDESKRPKYKELLKHPFILMYEERAVEVACYVCKILDQMPATPSSPMYVD

Variants of: B1
Assay: co-immunoprecipitation, quantified immunoblot; HEK293 cell lysates; parent: 1; read off a plot

ratio to parent	Variant
~0.35	chain 1 THIDDYSTWDIVKATQYGIYERCRELVEAGYDVRQPDKENVTLLHWAAINNGIDLVKYYISKGAIVDQLGGDLNSTPLHWATRQGHLSMVVQLMKYGADPSLIDGEGCSCIHLAAQFGHTSIVAYLIAKGQDVDMMDQNGMTPLMWAAYRTHSVDPTRLLLTFNVSVNLGDKYHKNTALHWAVLAGNTTVISLLLEAGANVDAQNIKGESALDLAKQRKNVWMINHLQEARQAKGYDN [chain 1 R52G]
~0.85	chain 1 THIDDYSTWDIVKATQYGIYERCRELVEAGYDVRQPDKENVTLLHWAAINNRIDLVKYYISKGAIVDQLGGDLNSTPLHWATRGGHLSMVVQLMKYGADPSLIDGEGCSCIHLAAQFGHTSIVAYLIAKGQDVDMMDQNGMTPLMWAAYRTHSVDPTRLLLTFNVSVNLGDKYHKNTALHWAVLAGNTTVISLLLEAGANVDAQNIKGESALDLAKQRKNVWMINHLQEARQAKGYDN [chain 1 Q84G]
~0.33	chain 1 THIDDYSTWDIVKATQGGIYERCRELVEAGYDVRQPDKENVTLLHWAAINNRIDLVKYYISKGAIVDQLGGDLNSTPLHWATRQGHLSMVVQLMKYGADPSLIDGEGCSCIHLAAQFGHTSIVAYLIAKGQDVDMMDQNGMTPLMWAAYRTHSVDPTRLLLTFNVSVNLGDKYHKNTALHWAVLAGNTTVISLLLEAGANVDAQNIKGESALDLAKQRKNVWMINHLQEARQAKGYDN [chain 1 Y17G]
~0.42	chain 1 THIDDYSTWDIVKATQYGIYERCRELVEAGYDVRQPDKENVTLLHWAAINNRIDLVKYYISKGAIVDQLGGDLNSTPLHGATRQGHLSMVVQLMKYGADPSLIDGEGCSCIHLAAQGGHTSIVAYLIAKGQDVDMMDQNGMTPLMWAAYRTHSVDPTRLLLTFNVSVNLGDKYHKNTALHWAVLAGNTTVISLLLEAGANVDAQNIKGESALDLAKQRKNVWMINHLQEARQAKGYDN [chain 1 W80G, chain 1 F117G]
~0.43	chain 1 THIGDYSTWDIVKATQYGIYERCRELVEAGYDVRQPDKENVTLLHWAAINNRIDLVKYYISKGAIVDQLGGDLNSTPLHWATRQGHLSMVVQLMKYGADPSLIDGEGCSCIHLAAQFGHTSIVAYLIAKGQDVDMMDQNGMTPLMWAAYRTHSVDPTRLLLTFNVSVNLGDKYHKNTALHWAVLAGNTTVISLLLEAGANVDAQNIKGESALDLAKQRKNVWMINHLQEARQAKGYDN [chain 1 D4G]
~0.75	chain 1 THIDDYSTWDIVKATQYGIYERCRELVEAGYDVRQPDKENVTLLHWAAINNRIDLVKYYISKGAIVDQLGGDLNSTPLHWATGQGHLSMVVQLMKYGADPSLIDGEGCSCIHLAAQFGHTSIVAYLIAKGQDVDMMDQNGMTPLMWAAYGTHSVDPTRLLLTFNVSVNLGDKYHKNTALHWAVLAGNTTVISLLLEAGANVDAQNIKGESALDLAKQRKNVWMINHLQEARQAKGYDN [chain 1 R83G, chain 1 R150G]
~0.35	chain 1 THIDDGSTWDIVKATQYGIYERCRELVEAGYDVRQPDKENVTLLHWAAINNRIDLVKYYISKGAIVDQLGGDLNSTPLHWATRQGHLSMVVQLMKYGADPSLIDGEGCSCIHLAAQFGHTSIVAYLIAKGQDVDMMDQNGMTPLMWAAYRTHSVDPTRLLLTFNVSVNLGDKYHKNTALHWAVLAGNTTVISLLLEAGANVDAQNIKGESALDLAKQRKNVWMINHLQEARQAKGYDN [chain 1 Y6G]
~0.75	chain 1 THIDGYSTWDIVKATQYGIYERCRELVEAGYDVRQPDKENVTLLHWAAINNRIDLVKYYISKGAIVDQLGGDLNSTPLHWATRQGHLSMVVQLMKYGADPSLIDGEGCSCIHLAAQFGHTSIVAYLIAKGQDVDMMDQNGMTPLMWAAYRTHSVDPTRLLLTFNVSVNLGDKYHKNTALHWAVLAGNTTVISLLLEAGANVDAQNIKGESALDLAKQRKNVWMINHLQEARQAKGYDN [chain 1 D5G]
